Results reported in article PMC6043480 (2018).
Ends that are not written are not given here. dimethyl = dimethyl-lysine

Target: T1, 53BP1 tandem Tudor domain (residues 1459-1634) (human, UniProt Q12888 1459-1634)
T1 chain: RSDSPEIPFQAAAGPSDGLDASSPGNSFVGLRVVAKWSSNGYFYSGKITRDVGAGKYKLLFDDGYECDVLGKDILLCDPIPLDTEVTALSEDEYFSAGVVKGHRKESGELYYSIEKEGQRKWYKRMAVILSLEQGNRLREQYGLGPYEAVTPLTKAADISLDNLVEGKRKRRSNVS
Experiment: ITC

- Kd: 19.8 µM
Binder: KGGAKRHRK(dimethyl)VLRDN [H4K20me2 peptide (residues 12-25)]
